This note sets out measurements from patent publication US20150105316A1 (TREVENA, published 2015).

Where no end group is shown, it is not given here. [ ]: non-standard residue; d: D form. Ac6c = NC1(C(=O)O)CCCCC1; Sar = CNCC(=O)O

What all share (experiment): cell-based or functional assay
Experiment [1] has as its target T1, rat angiotensin 2 type 1 receptor (rat, UniProt P25095 1-359).
T1 sequence (looked up): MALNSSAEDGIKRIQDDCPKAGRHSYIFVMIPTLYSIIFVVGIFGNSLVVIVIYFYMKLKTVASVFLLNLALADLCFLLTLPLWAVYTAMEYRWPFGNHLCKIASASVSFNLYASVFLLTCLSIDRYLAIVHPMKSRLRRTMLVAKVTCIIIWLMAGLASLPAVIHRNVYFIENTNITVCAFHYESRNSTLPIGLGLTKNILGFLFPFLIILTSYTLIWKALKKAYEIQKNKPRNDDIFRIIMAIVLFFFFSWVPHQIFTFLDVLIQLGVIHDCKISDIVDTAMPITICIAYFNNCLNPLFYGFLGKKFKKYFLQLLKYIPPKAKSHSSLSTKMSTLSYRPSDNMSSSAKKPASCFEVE

Experiment [2] concerns the target T2, human angiotensin 2 type 1 receptor (human, UniProt P30556 1-359).
T2 sequence (looked up): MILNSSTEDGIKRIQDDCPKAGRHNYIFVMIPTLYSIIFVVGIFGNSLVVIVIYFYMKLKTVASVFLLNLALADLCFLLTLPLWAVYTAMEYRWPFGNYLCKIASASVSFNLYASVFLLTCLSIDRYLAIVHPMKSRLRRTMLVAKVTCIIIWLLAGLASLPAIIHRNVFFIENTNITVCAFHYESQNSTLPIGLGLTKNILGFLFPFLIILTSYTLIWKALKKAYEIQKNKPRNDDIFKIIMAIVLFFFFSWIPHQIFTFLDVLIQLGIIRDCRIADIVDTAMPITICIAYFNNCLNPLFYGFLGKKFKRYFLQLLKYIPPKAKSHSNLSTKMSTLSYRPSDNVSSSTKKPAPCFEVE

In experiment [3] the target is T1, rat angiotensin 2 type 1 receptor. This is another data set of the same source.
Experiment [4] has as its target T2, human angiotensin 2 type 1 receptor. This is another data set of the same source.

Take [Sar]RVYPHPF [SEQ ID NO: 10 (Sar-Arg-Val-Tyr-Pro-His-Pro-Phe)]: in experiment [1], the “beta-arrestin2 assay EC50” value was determined as 3.2 nM, the “beta-arrestin2 assay Span” value was > 105 and the “beta-arrestin2 assay pEC50” value is 8.5. In experiment [2], the “beta-arrestin2 assay EC50” value was > 3.2 nM, the “beta-arrestin2 assay Span” value is < 101 and the “beta-arrestin2 assay pEC50” value was < 8.5. In experiment [3], the “IP1 G-protein assay EC50” value is > 0.6 nM, the “IP1 G-protein assay Span” value is < 104 and the “IP1 G-protein assay pEC50” value was < 9.2. Moreover, in experiment [4], the “IP1 G-protein assay EC50” value is 1.3 nM, the “IP1 G-protein assay Span” value is < 103 and the “IP1 G-protein assay pEC50” value was < 9.2.

In the case of [Sar]RVY[Ac6c]HPF [SEQ ID NO: 17 (Sar-Arg-Val-Tyr-cyHex-His-Pro-Phe)], in experiment [1], the “beta-arrestin2 assay EC50” value was 3.2 nM, the “beta-arrestin2 assay Span” value is < 105 and the “beta-arrestin2 assay pEC50” value is 8.5. Moreover, in experiment [2], the “beta-arrestin2 assay EC50” value is > 3.2 nM, the “beta-arrestin2 assay Span” value was > 101 and the “beta-arrestin2 assay pEC50” value is < 8.5. Moreover, in experiment [3], the “IP1 G-protein assay EC50” value is > 0.6 nM, the “IP1 G-protein assay Span” value was > 104 and the “IP1 G-protein assay pEC50” value was < 9.2. Further, in experiment [4], the “IP1 G-protein assay EC50” value was < 1.3 nM, the “IP1 G-protein assay Span” value is < 103 and the “IP1 G-protein assay pEC50” value is < 9.2.

[Sar]RVY[Ac6c]HPM [SEQ ID NO: 16 (Sar-Arg-Val-Tyr-cyHex-His-Pro-Met)]: in experiment [1], the “beta-arrestin2 assay EC50” value is > 3.2 nM, the “beta-arrestin2 assay Span” value was < 105 and the “beta-arrestin2 assay pEC50” value was < 8.5. Also, in experiment [2], the “beta-arrestin2 assay EC50” value is > 3.2 nM, the “beta-arrestin2 assay Span” value is < 101 and the “beta-arrestin2 assay pEC50” value was < 8.5. In addition, in experiment [3], the “IP1 G-protein assay EC50” value was > 0.6 nM, the “IP1 G-protein assay Span” value is < 104 and the “IP1 G-protein assay pEC50” value was < 9.2. Also, in experiment [4], the “IP1 G-protein assay EC50” value was > 1.3 nM, the “IP1 G-protein assay Span” value was < 103 and the “IP1 G-protein assay pEC50” value is < 9.2.

With [Sar]RVY[Ac6c]HPI [SEQ ID NO: 11 (Sar-Arg-Val-Tyr-cyHex-His-Pro-Ile)], in experiment [1], the “beta-arrestin2 assay EC50” value was > 3.2 nM, the “beta-arrestin2 assay Span” value is < 105 and the “beta-arrestin2 assay pEC50” value was < 8.5. Further, in experiment [2], the “beta-arrestin2 assay EC50” value is > 3.2 nM, the “beta-arrestin2 assay Span” value is < 101 and the “beta-arrestin2 assay pEC50” value was < 8.5. For the same molecule, in experiment [3], the “IP1 G-protein assay EC50” value is > 0.6 nM and the “IP1 G-protein assay pEC50” value is > 9.2. Moreover, in experiment [4], the “IP1 G-protein assay EC50” value was > 1.3 nM, the “IP1 G-protein assay Span” value was < 103 and the “IP1 G-protein assay pEC50” value is < 9.2.

Consider [Sar]RVY[Ac6c]HPS [SEQ ID NO: 15 (Sar-Arg-Val-Tyr-cyHex-His-Pro-Ser)], for which, in experiment [1], the “beta-arrestin2 assay EC50” value is > 3.2 nM, the “beta-arrestin2 assay Span” value was < 105 and the “beta-arrestin2 assay pEC50” value was < 8.5. Also, in experiment [2], the “beta-arrestin2 assay EC50” value is > 3.2 nM, the “beta-arrestin2 assay Span” value is < 101 and the “beta-arrestin2 assay pEC50” value is < 8.5. In addition, in experiment [3], the “IP1 G-protein assay EC50” value is > 0.6 nM, the “IP1 G-protein assay Span” value was < 104 and the “IP1 G-protein assay pEC50” value was < 9.2. For the same molecule, in experiment [4], the “IP1 G-protein assay EC50” value was > 1.3 nM and the “IP1 G-protein assay pEC50” value is > 9.2.

[Sar]RVY[Ac6c]HPT [SEQ ID NO: 14 (Sar-Arg-Val-Tyr-cyHex-His-Pro-Thr)]: in experiment [1], the “beta-arrestin2 assay EC50” value was > 3.2 nM, the “beta-arrestin2 assay Span” value was < 105 and the “beta-arrestin2 assay pEC50” value was < 8.5. In addition, in experiment [2], the “beta-arrestin2 assay EC50” value is > 3.2 nM, the “beta-arrestin2 assay Span” value is < 101 and the “beta-arrestin2 assay pEC50” value was < 8.5. In experiment [3], the “IP1 G-protein assay EC50” value is > 0.6 nM and the “IP1 G-protein assay pEC50” value is > 9.2. In experiment [4], the “IP1 G-protein assay EC50” value was > 1.3 nM and the “IP1 G-protein assay pEC50” value is > 9.2.

With [Sar]RVY[Ac6c]HPL [SEQ ID NO: 12 (Sar-Arg-Val-Tyr-cyHex-His-Pro-Leu)], in experiment [1], the “beta-arrestin2 assay EC50” value was > 3.2 nM, the “beta-arrestin2 assay Span” value is < 105 and the “beta-arrestin2 assay pEC50” value was < 8.5. Moreover, in experiment [2], the “beta-arrestin2 assay EC50” value is > 3.2 nM, the “beta-arrestin2 assay Span” value was < 101 and the “beta-arrestin2 assay pEC50” value was < 8.5. Moreover, in experiment [3], the “IP1 G-protein assay EC50” value is > 0.6 nM, the “IP1 G-protein assay Span” value was < 104 and the “IP1 G-protein assay pEC50” value was < 9.2. In addition, in experiment [4], the “IP1 G-protein assay EC50” value is > 1.3 nM, the “IP1 G-protein assay Span” value was < 103 and the “IP1 G-protein assay pEC50” value is < 9.2.
